Results published in patent US20240016931A1 (JIANGSU HENGRUI PHARMACEUTICALS, published 2024).

T1: His-tagged cynomolgus monkey TSLP antigen (cynoTSLP-His) (cynomolgus monkey)
T1 construct: whole entry named
T1 chain: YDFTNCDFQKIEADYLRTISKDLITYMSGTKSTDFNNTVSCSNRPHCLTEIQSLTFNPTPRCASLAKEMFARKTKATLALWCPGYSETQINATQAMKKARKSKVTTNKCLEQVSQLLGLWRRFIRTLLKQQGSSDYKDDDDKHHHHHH


Legend:
[1] = target: T2, Fc-tagged human TSLP antigen (huTSLP-Fc) (human, biotin-labeled in the blocking assays); experiment: competition ELISA: blocks TSLP binding to TSLP receptor
T2 construct: whole entry named; also called recombinant human TSLP-Fc

[2] = target: T3, His-tagged human TSLP antigen (huTSLP-his) (human); experiment: ELISA, coated huTSLP-his;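 also: binding of antibodies to plate-bound TSLP read as absorbance at 450 nm after TMB colour development, EC50 derived from binding curves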
T3 construct: Secreted from HEK293E and purified on nickel; whole entry named; also called Human TSLP-his

[3] = target: T2, Fc-tagged human TSLP antigen (huTSLP-Fc); experiment: competition FACS: biotin-TSLP-Fc binding to CHOK1-TSLPR/IL-7R cells
[4] = target: T2, Fc-tagged human TSLP antigen (huTSLP-Fc); experiment: competition ELISA: biotin-huTSLP-Fc binding to coated human-TSLPR-Fc-ECD
native TSLP [5] = target: T4, native TSLP (human, UniProt Q969D9 29-159); experiment: cell-based or functional assay
[6] = target: T2, Fc-tagged human TSLP antigen (huTSLP-Fc); experiment: cell-based or functional assay
[7] = target: T1, His-tagged cynomolgus monkey TSLP …; experiment: Biacore T200, antibody captured on Protein A chip, antigen in flow, 1:1 Langmuir
[8] = target: T3, His-tagged human TSLP antigen …; experiment: as above
native TSLP [9] = target: T4, native TSLP; experiment: cell-based or functional assay; remark: listed apart in the source
[10] = target: T3, His-tagged human TSLP antigen …; experiment: Biacore (SPR)
[11] = target: T2, Fc-tagged human TSLP antigen (huTSLP-Fc); experiment: competition ELISA: plate coated with human-TSLPR-Fc-ECD, biotin-labeled huTSLP-Fc premixed with the antibody dilution series, streptavidin-peroxidase detection, OD450; blocked ligand-receptor pair is TSLP and TSLPR

| Binder | IC50 [1] | IC50 [3] | IC50 (nM), inhibition of TSLP-induced proliferation of BaF3 cells overexpressing TSLPR/IL-7R [6] | Kd [7] | Kd [8] | further results |
| --- | --- | --- | --- | --- | --- | --- |
| Ch199 (antibody, human IgG1, kappa, V domains shown, murine variable regions on human IgG1-YTE / kappa; also called Chi 99; chimeric antibody corresponding to mab199) VH: QVQLQQSGPQLVRPGASVKISCKASGYSFTTYWMHWVKQRPGQGLEWIGMIDPSDSETTLIQKFKDKATLTVDKSSSTAYMQLSSPTSEDSAVYYCARTLDGYYDYWGQGTTLTVSS VL: DIQMTQSPASLSASVGETVTITCRASENIYSYLAWYQQKQGKSPQLLVYFAKTLAEGVPSRFSGSVSGTQFSLKINSLQPEDFGSYYCQHHYGTPWTFGGGTKLEIKR | 427 pM | – | – | – | – | EC50 [2]: 516 pM |
| hu199-26 (antibody, human IgG1, kappa, V domains shown, IgG1-YTE, kappa) VH: EVQLVQSGAEVKKPGASVKVSCKASGYTFTTYWMHWVKQAPGQGLEWMGMIDPSDSETTLIQKFKDKVTMTVDKSTSTAYMELSSLRSEDTAVYYCARTLDGYYDYWGQGTTVTVSS VL: DIQMTQSPSSLSASVGDRVTITCRASENIYSYLAWYQQKPGKAPKLLVYFAKTLAEGVPSRFSGSGSGTDFTLTISSLQPEDFATYYCQHHYGTPWTFGGGTKVEIKR | 365 pM | – | – | – | – | – |
| hu199-36 (antibody, human IgG1, kappa, V domains shown, IgG1-YTE, kappa) VH: EVQLVQSGAEVKKPGASVKVSCKASGYTFTTYWMHWVKQAPGQGLEWMGMIDPSDSETTLIQKFKDKVTLTVDKSTSTAYMELSSLRSEDTAVYYCARTLDGYYDYWGQGTTVTVSS VL: DIQMTQSPSSLSASVGDRVTITCRASENIYSYLAWYQQKPGKSPQLLVYFAKTLAEGVPSRFSGSVSGTQFTLTISSLQPEDFATYYCQHHYGTPWTFGGGTKVEIKR | 727 pM | 227 pM | 0.477 nM | 17.2 pM | 10.5 pM | IC50 [4]: 569 pM |
| hu199-32 (antibody, human IgG1, kappa, V domains shown, IgG1-YTE, kappa) VH: EVQLVQSGAEVKKPGASVKVSCKASGYTFTTYWMHWVKQAPGQGLEWMGMIDPSDSETTLIQKFKDKVTLTVDKSTSTAYMELSSLRSEDTAVYYCARTLDGYYDYWGQGTTVTVSS VL: DIQMTQSPSSLSASVGDRVTITCRASENIYSYLAWYQQKPGKAPKLLVYFAKTLAEGVPSRFSGSGSGTDFTLTISSLQPEDFATYYCQHHYGTPWTFGGGTKVEIKR | 287 pM | – | – | – | – | – |
| hu199-29 (antibody, human IgG1, kappa, V domains shown, IgG1-YTE, kappa) VH: EVQLVQSGAEVKKPGASVKVSCKASGYTFTTYWMHWVKQAPGQGLEWMGMIDPSDSETTLIQKFKDKVTMTVDKSTSTAYMELSSLRSEDTAVYYCARTLDGYYDYWGQGTTVTVSS VL: DIQMTQSPSSLSASVGDRVTITCRASENIYSYLAWYQQKPGKAPKLLVYFAKTLAEGVPSRFSGSVSGTDFTLTISSLQPEDFATYYCQHHYGTPWTFGGGTKVEIKR | 554 pM | – | – | – | – | – |
| hu199-35 (antibody, human IgG1, kappa, V domains shown, IgG1-YTE, kappa) VH: EVQLVQSGAEVKKPGASVKVSCKASGYTFTTYWMHWVKQAPGQGLEWMGMIDPSDSETTLIQKFKDKVTLTVDKSTSTAYMELSSLRSEDTAVYYCARTLDGYYDYWGQGTTVTVSS VL: DIQMTQSPSSLSASVGDRVTITCRASENIYSYLAWYQQKPGKAPKLLVYFAKTLAEGVPSRFSGSVSGTDFTLTISSLQPEDFATYYCQHHYGTPWTFGGGTKVEIKR | 485 pM | – | – | – | – | – |
| hu199-33 (antibody, human IgG1, kappa, V domains shown, IgG1-YTE, kappa) VH: EVQLVQSGAEVKKPGASVKVSCKASGYTFTTYWMHWVKQAPGQGLEWMGMIDPSDSETTLIQKFKDKVTLTVDKSTSTAYMELSSLRSEDTAVYYCARTLDGYYDYWGQGTTVTVSS VL: DIQMTQSPSSLSASVGDRVTITCRASENIYSYLAWYQQKPGKSPQLLVYFAKTLAEGVPSRFSGSGSGTQFTLTISSLQPEDFATYYCQHHYGTPWTFGGGTKVEIKR | 206 pM | – | – | – | – | – |
| hu199-34 (antibody, human IgG1, kappa, V domains shown, IgG1-YTE, kappa) VH: EVQLVQSGAEVKKPGASVKVSCKASGYTFTTYWMHWVKQAPGQGLEWMGMIDPSDSETTLIQKFKDKVTLTVDKSTSTAYMELSSLRSEDTAVYYCARTLDGYYDYWGQGTTVTVSS VL: DIQMTQSPSSLSASVGDRVTITCRASENIYSYLAWYQQKPGKAPKLLIYFAKTLAEGVPSRFSGSVSGTDFTLTISSLQPEDFATYYCQHHYGTPWTFGGGTKVEIKR | 711 pM | – | – | – | – | – |
| hu199-27 (antibody, human IgG1, kappa, V domains shown, IgG1-YTE, kappa) VH: EVQLVQSGAEVKKPGASVKVSCKASGYTFTTYWMHWVKQAPGQGLEWMGMIDPSDSETTLIQKFKDKVTMTVDKSTSTAYMELSSLRSEDTAVYYCARTLDGYYDYWGQGTTVTVSS VL: DIQMTQSPSSLSASVGDRVTITCRASENIYSYLAWYQQKPGKSPQLLVYFAKTLAEGVPSRFSGSGSGTQFTLTISSLQPEDFATYYCQHHYGTPWTFGGGTKVEIKR | 354 pM | – | – | – | – | – |
| hu3-13 (antibody, human IgG1, kappa, V domains shown, IgG1-YTE, kappa; also called hu3VH2-H110Y + hu3VL6) VH: EVQLVQSGAEVKKPGASVKVSCKASGYTFTDDYMNWVRQAPGQRLEWMGIISPYNGGTSYNQKFKGRVTLTVDKSASTAYMELSSLRSEDTAVYYCAREDYDYDGYAMDYWGQGTTVTVSS VL: EIVLTQSPATLSLSPGERATLSCRASSSVSYMHWYQQKPGQAPRPWIYATSNLASGVPARFSGSGSGTSYTLTISRLEPEDFAVYYCQQSDSGREFGGGTKVEIKR | – | 132 pM | 0.444 nM | 340 pM | 1 pM | EC50 [2]: 148 pM; IC50 [4]: 498 pM; IC50 (nM), inhibition of native TSLP-induced proliferation of BaF3-TLSPR/IL-7R cells (native TSLP [5]): 0.289 nM |

Further lines, with some results ahead:

| IC50 [1] | IC50 [3] | IC50 (nM), inhibition of TSLP-induced proliferation of BaF3 cells overexpressing TSLPR/IL-7R [6] | Kd [7] | Kd [8] | Binder | further results |
| --- | --- | --- | --- | --- | --- | --- |
| – | 137 pM | 0.43 nM | 1950 pM | 5 pM | hu119-30 (antibody, human IgG1, kappa, V domains shown, IgG1-YTE, kappa; also called hu119VH8 + hu119VL6-N31S) VH: EAQLVQSGAEVKKPGSSVKVSCKASGFTFSTYNMHWVRQAPGQGLEWIGAIYPGNGETSYNQKFKDRATLTVDKSTRTAYMELSSLRSEDTAVYYCAREDDYGEGYFDVWGQGTTVTVSS VL: DIVLTQSPATLSLSPGERATLSCRASESVDSSGLSFMHWYQQKPGQPPRLLLYRASNLGSGIPARFSGSGSGTDFTLTISSLEPEDFAVYYCQQINTDPLTFGQGTKLEIKR | IC50 [4]: 519 pM; IC50 (nM), inhibition of native TSLP-induced proliferation of BaF3-TLSPR/IL-7R cells (native TSLP [5]): 1.53 nM |
| 462 pM | – | – | – | – | hu199-28 (antibody, human IgG1, kappa, V domains shown, IgG1-YTE, kappa) VH: EVQLVQSGAEVKKPGASVKVSCKASGYTFTTYWMHWVKQAPGQGLEWMGMIDPSDSETTLIQKFKDKVTMTVDKSTSTAYMELSSLRSEDTAVYYCARTLDGYYDYWGQGTTVTVSS VL: DIQMTQSPSSLSASVGDRVTITCRASENIYSYLAWYQQKPGKAPKLLIYFAKTLAEGVPSRFSGSVSGTDFTLTISSLQPEDFATYYCQHHYGTPWTFGGGTKVEIKR | – |
| 349 pM | – | – | – | – | hu199-30 (antibody, human IgG1, kappa, V domains shown, IgG1-YTE, kappa) VH: EVQLVQSGAEVKKPGASVKVSCKASGYTFTTYWMHWVKQAPGQGLEWMGMIDPSDSETTLIQKFKDKVTMTVDKSTSTAYMELSSLRSEDTAVYYCARTLDGYYDYWGQGTTVTVSS VL: DIQMTQSPSSLSASVGDRVTITCRASENIYSYLAWYQQKPGKSPQLLVYFAKTLAEGVPSRFSGSVSGTQFTLTISSLQPEDFATYYCQHHYGTPWTFGGGTKVEIKR | – |
| 304 pM | – | – | – | – | hu199-31 (antibody, human IgG1, kappa, V domains shown, IgG1-YTE, kappa) VH: EVQLVQSGAEVKKPGASVKVSCKASGYTFTTYWMHWVKQAPGQGLEWMGMIDPSDSETTLIQKFKDKVTLTVDKSTSTAYMELSSLRSEDTAVYYCARTLDGYYDYWGQGTTVTVSS VL: DIQMTQSPSSLSASVGDRVTITCRASENIYSYLAWYQQKPGKAPKLLIYFAKTLAEGVPSRFSGSGSGTDFTLTISSLQPEDFATYYCQHHYGTPWTFGGGTKVEIKR | – |
| – | 187 pM | 0.409 nM | 30.4 pM | 0.903 pM | hu179-33 (antibody, human IgG1, kappa, V domains shown, IgG1-YTE, kappa; also called hu179VH3-N55V + hu179VL8-N53E) VH: EVQLVQSGAEVKKPGSSVKVSCKASGYTFSNYLIEWVRQAPGQGLEWIGVIDPGVGDTNYNENFKGRATLTADKSTSTAYIELSSLRSEDTAVYYCAREDNTGTAFDYWGQGTTVTVSS VL: SIVMTQTPLSLSVTPGQPASISCKASQSVSSDVTWYLQKPGQSPQLLIYYVSEHYTGVPDRFSGSGYGTDFTLKISRVEAEDVGVYYCQQHHRFPLTFGQGTKLEIKR | IC50 [4]: 504 pM; IC50 (nM), inhibition of native TSLP-induced proliferation of BaF3-TLSPR/IL-7R cells (native TSLP [5]): 0.0228 nM; activity in inhibiting native TSLP-stimulated proliferation of BaF3, relative to AMG157 (native TSLP [9]): 100 times; Kd [10]: 0.903 pM |
| – | 207 pM | 0.573 nM | 9.22 pM | 8.12 pM | AMG157 (tezepelumab, anti-TSLP antibody) (antibody, human IgG2, lambda, V domains shown, positive control) VH: QMQLVESGGGVVQPGRSLRLSCAASGFTFRTYGMHWVRQAPGKGLEWVAVIWYDGSNKHYADSVKGRFTITRDNSKNTLNLQMNSLRAEDTAVYYCARAPQWELVHEAFDIWGQGTMVTVSS VL: SYVLTQPPSVSVAPGQTARITCGGNNLGSKSVHWYQQKPGQAPVLVVYDDSDRPSWIPERFSGSNSGNTATLTISRGEAGDEADYYCQVWDSSSDHVVFGGGTKLTVLG | EC50 [2]: 722 pM; IC50 (read off the curve) [11]: ~500 pM; Kd [10]: 8.12 pM |
